Molecular target: T1, rat cytochrome P450 reductase (rat, UniProt P00388 1-678)
T1 sequence (looked up): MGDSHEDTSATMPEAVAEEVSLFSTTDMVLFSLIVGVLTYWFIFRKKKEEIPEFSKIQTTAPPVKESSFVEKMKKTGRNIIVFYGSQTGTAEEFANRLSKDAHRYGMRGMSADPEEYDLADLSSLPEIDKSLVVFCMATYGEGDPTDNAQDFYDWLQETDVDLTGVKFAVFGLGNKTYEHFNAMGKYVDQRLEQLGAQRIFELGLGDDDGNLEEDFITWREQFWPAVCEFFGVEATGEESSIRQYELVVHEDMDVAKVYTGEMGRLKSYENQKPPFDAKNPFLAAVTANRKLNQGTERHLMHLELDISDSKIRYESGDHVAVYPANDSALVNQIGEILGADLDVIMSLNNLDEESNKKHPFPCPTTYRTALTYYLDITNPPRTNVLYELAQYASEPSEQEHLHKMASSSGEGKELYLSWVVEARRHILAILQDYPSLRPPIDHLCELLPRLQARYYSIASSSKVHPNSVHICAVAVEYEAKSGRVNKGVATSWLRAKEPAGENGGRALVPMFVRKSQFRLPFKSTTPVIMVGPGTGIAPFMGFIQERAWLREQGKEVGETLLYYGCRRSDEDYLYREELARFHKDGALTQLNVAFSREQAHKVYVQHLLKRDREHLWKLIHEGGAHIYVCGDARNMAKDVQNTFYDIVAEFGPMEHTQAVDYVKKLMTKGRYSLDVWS
Test: SEC

B1: rabbit cytochrome P450 2B4 (enzyme, UniProt P00178 1-491, looked up)
chain: MEFSLLLLLAFLAGLLLLLFRGHPKAHGRLPPGPSPLPVLGNLLQMDRKGLLRSFLRLREKYGDVFTVYLGSRPVVVLCGTDAIREALVDQAEAFSGRGKIAVVDPIFQGYGVIFANGERWRALRRFSLATMRDFGMGKRSVEERIQEEARCLVEELRKSKGALLDNTLLFHSITSNIICSIVFGKRFDYKDPVFLRLLDLFFQSFSLISSFSSQVFELFPGFLKHFPGTHRQIYRNLQEINTFIGQSVEKHRATLDPSNPRDFIDVYLLRMEKDKSDPSSEFHHQNLILTVLSLFFAGTETTSTTLRYGFLLMLKYPHVTERVQKEIEQVIGSHRPPALDDRAKMPYTDAVIHEIQRLGDLIPFGVPHTVTKDTQFRGYVIPKNTEVFPVLSSALHDPRYFETPNTFNPGHFLDANGALKRNEGFMPFSLGKRICLGEGIARTELFLFFTTILQNFSIASPVPPEDIDLTPRESGVGNVPPSYQIRFLAR
B1: binds.
